Article PMC6625726, “A polymorphic helix of a Salmonella needle protein relays signals defining distinct steps in type III secretion” (PLoS Biology, 2019)
Residue numbers refer to the chain shown, from its start. Names may count otherwise.

B1: PrgI^S49A, recombinant (natural protein, Salmonella enterica serovar Typhimurium, UniProt P41784 1-80, looked up)
chain: MATPWSGYLDDVSAKFDTGVDNLQTQVTEALDKLAAKPSDPALLAAYQAKLSEYNLYRNAQSNTVKVFKDIDAAIIQNFR
notes: needle filament protein PrgI of the SPI-1 T3SS, 80 amino acids; not shown: His6, N-terminal, cleaved
B2: PrgI^V67A, recombinant (natural protein, Salmonella enterica serovar Typhimurium, UniProt P41784 1-80, looked up)
chain: B1 chain with A49S, V67A
notes: as for B1
B3: PrgI^V20A, recombinant (natural protein, Salmonella enterica serovar Typhimurium, UniProt P41784 1-80, looked up)
chain: B1 chain with V20A, A49S
notes: needle filament protein PrgI of the SPI-1 T3SS, 80 amino acids; used for solid-state NMR; not shown: His6, N-terminal, cleaved
B4: PrgI^R58A, recombinant (natural protein, Salmonella enterica serovar Typhimurium, UniProt P41784 1-80, looked up)
chain: B1 chain with A49S, R58A
notes: as for B3
B5: PrgI^Q77R, recombinant (natural protein, Salmonella enterica serovar Typhimurium, UniProt P41784 1-80, looked up)
chain: B1 chain with A49S, Q77R
notes: as for B3
B6: PrgI, wild type, in S. Typhimurium (natural protein)
chain: B1 chain with A49S
notes: needle filament protein PrgI of the SPI-1 T3SS, 80 amino acids; assembled in vivo into the needle filament of the injectisome; also called WT PrgI; needle filament; source: S. Typhimurium ΔprgI ΔprgJ, from the low-copy plasmid pWSK29 (with prgJ); or chromosomal in wild-type and ΔsipD strains
B7: PrgI, wild type, recombinant (natural protein)
chain: B1 chain with A49S
notes: needle filament protein PrgI of the SPI-1 T3SS, 80 amino acids; pET15b, thrombin-cleavable tag; polymerised in vitro into filaments; also called PrgI^WT; WT PrgI; not shown: His6, N-terminal, cleaved
B8: PrgI^L31A, recombinant (natural protein, Salmonella enterica serovar Typhimurium, UniProt P41784 1-80, looked up)
chain: B1 chain with L31A, A49S
notes: as for B1
B9: PrgI^L56A, recombinant (natural protein, Salmonella enterica serovar Typhimurium, UniProt P41784 1-80, looked up)
chain: B1 chain with A49S, L56A
notes: as for B1
B10: PrgI^L9A, recombinant (natural protein, Salmonella enterica serovar Typhimurium, UniProt P41784 1-80, looked up)
chain: B1 chain with L9A, A49S
notes: as for B1
B11: PrgI^F16A, recombinant (natural protein, Salmonella enterica serovar Typhimurium, UniProt P41784 1-80, looked up)
chain: B1 chain with F16A, A49S
notes: as for B1
B12: PrgI^T3A, recombinant (natural protein, Salmonella enterica serovar Typhimurium, UniProt P41784 1-80, looked up)
chain: B1 chain with T3A, A49S
notes: as for B1
B13: PrgI^K66E, recombinant (natural protein, Salmonella enterica serovar Typhimurium, UniProt P41784 1-80, looked up)
chain: B1 chain with A49S, K66E
notes: as for B1
B14: PrgI^D70K, recombinant (natural protein, Salmonella enterica serovar Typhimurium, UniProt P41784 1-80, looked up)
chain: B1 chain with A49S, D70K
notes: as for B1

Molecular target: the molecule itself
Assay: cryo-EM structure; filaments polymerized in vitro from purified protein, sonicated; helical reconstruction

Protein	binding result
B1	binds
B2	binds

Molecular target: the molecule itself
Assay: solid-state NMR of filaments; magic-angle spinning, 800 MHz, 11 kHz, approximately 278 K; 13C-detected 1D and 2D spectra of needle filaments

Protein	binding result
B3	binds
B4	binds
B5	binds

Molecular target: the molecule itself
Assay: cryo-EM structure; needle filaments boxed out from fully assembled needle complexes isolated by affinity chromatography (in vivo assembled, attached to the base); helical reconstruction

Protein	binding result
B6	binds

Molecular target: the molecule itself
Assay: in vitro polymerization seen by negative-stain electron microscopy; His-tag cleaved with thrombin; concentrated to approximately 1 mg/ml in 20 mM MES, pH 5.5, overnight at room temperature; 2% phosphotungstic acid stain

Protein	binding result
B7	binds
B8	binds
B9	binds
B10	binds
B11	binds
B12	binds
B13	binds
B14	binds
